Values quoted from earlier work, collected in patent US7101894B2 (priority 2001, dated 2006).

Target: CMV US28 (Human cytomegalovirus, UniProt P69332)
Conditions: binding of Fractalkine to US28

Chain of CMV US28 (P69332 whole entry): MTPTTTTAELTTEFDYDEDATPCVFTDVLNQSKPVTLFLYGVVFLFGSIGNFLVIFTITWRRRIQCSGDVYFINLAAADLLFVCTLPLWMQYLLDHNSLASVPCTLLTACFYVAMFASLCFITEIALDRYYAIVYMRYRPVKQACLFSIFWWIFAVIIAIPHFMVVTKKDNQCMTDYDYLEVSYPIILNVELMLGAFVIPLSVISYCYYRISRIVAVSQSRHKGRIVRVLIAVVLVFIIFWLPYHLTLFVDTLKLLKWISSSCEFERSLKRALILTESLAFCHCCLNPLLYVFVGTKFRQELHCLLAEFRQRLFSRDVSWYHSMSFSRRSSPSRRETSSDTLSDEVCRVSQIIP

B1: Fractalkine: the CX3C chemokine, binds US28; used 125I-labeled as radioligand (protein, UniProt P78423 25-397, looked up)
Fractalkine: QHHGVTKCNITCSKMTSKIPVALLIHYQQNQASCGKRAIILETRQHRLFCADPKEQWVKDAMQHLDRQAAALTRNGGTFEKQIGEVKPRTTPAAGGMDESVVLEPEATGESSSLEPTPSSQEAQRALGTSPELPTGVTGSSGTRLPPTPKAQDGGPVGTELFRVPPVSTAATWQSSAPHQPGPSLWAEAKTSEAPSTQDPSTQASTASSPAPEENAPSEGQRVWGQGQSPRPENSLEREEMGPVPAHTDAFQDWGPGSMAHVSVVPVSSEGTPSREPVASGSWTPKAEEPIHATMDPQRLGVLITPVPDAQAATRRQAVGLLAFLGLLFCLGVAMFTYQSLQGCPRKMAGEMAEGLRYIPRSCGSNSYVLVPV
modifications: 125I label
notes: used 125I-labeled as radioligand
For B1, the Ki is listed as ~0.05 nM.
